The numbers were not newly measured in US20080113011A1, “Compositions and methods for enhanced mucosal delivery of interferon beta” (Nastech Pharmaceutical Company Inc., priority 2002, published 2008), which cites them from elsewhere.

For the data set the following is noted: anesthetized rats.

Where two headings read alike, the source gives them in different places.

Consider “human growth hormone: human growth hormone given nasally to anesthetized rats with or without N-acetyl-L-cysteine”, for which the nasal bioavailability by setting is: (with N-acetyl-L-cysteine (ACS)) 12.2%; (without N-acetyl-L-cysteine) 7.5%.
